# The RNAGym collection of RNA variant scans (doi:10.7554/elife.80360)
# B1: HDV Ribozyme (parent)
# chain: GGCCGGCAUGGUCCCAGCCUCCUCGCUGGCGCCGGCUGGGCAACAUUCCGAGGGGACCGUCCCCUCGGUAAUGGCGAAUGGGACCCA
# Variants of: B1
# Experiment: self-cleavage, relative activity (ratio to wild type); higher = more cleavage; co-transcriptional
row,Variant,self-cleavage
1,G40A G52U,0.683
2,C32A U79A,0.121
3,C15U G73A,0.302
4,U69G C75G,0.199
5,C18U G59C,0.651
6,G73C C85U,0.415
7,C7A C33G,0.0519
8,G5U,0.469
9,G5C U12G,0.0831
10,C18A C19A,0.128
11,G35C G68A,0.17
12,U72G G76C,0.594
13,C18U C32G,0.032
14,C84G A87C,0.409
15,G25C U27C,0.128
16,G25C U27G,0
17,A56U G67C,0.904
18,U12C C32A,0.256
19,C21U A42U,0.0845
20,G31C U72A,0.166
21,C19G C41G,0.0573
22,G25U G73A,0.0923
23,C15G U60G,0.712
24,U23A G35A,0.864

row,Variant,self-cleavage
1,G40A G74C,0.485
2,C19U A56U,0.0863
3,G38U A51G,0.32
4,A43G C58G,0.72
5,G34C C66G,0.169
6,G6C G76A,0.297
7,G40C A77G,0.271
8,A43G C84A,0.712
9,G38U A71C,0.225
10,G25U G54U,0.228
11,G25C C30G,0.0959
12,U12G C62G,0.437
13,C33G U72C,0.115
14,G2C U65G,0.0264
15,C4A G38U,0.0449
16,U46G C84A,0.554
17,G10A G55C,0.734
18,G17A G80C,0.345
19,A51G C61A,0.954
20,A16C U72A,0.437
21,C15G C63U,0.394
22,U23A C57G,1.06
23,C57U A70C,0.855
24,G38A U65C,0.117

row,Variant,self-cleavage
1,C13U G59C,0.587
2,G59C G73A,0.779
3,G17A G28U,0.122
4,G50A C61U,0.649
5,G28U,0.108
6,C19G C61A,0.106
7,A8C C32U,0.538
8,G55A U65C,0.863
9,C7A A77G,0.107
10,C14A G74A,0.182
11,C13G U65A,0.101
12,G35U A78U,0.0545
13,G1C C32A,0
14,G17C A56U,0.427
15,G5C C48U,0.308
16,U60C A87G,1.03
17,C66G C86G,1.07
18,G1U A71C,0.297
19,U60C C63G,1.09
20,G2U A71C,0.0161
21,A16C G50U,0.692
22,C3U C58U,0.696
23,G28U C48G,0.161
24,A71G A78G,0.772

row,Variant,self-cleavage
1,U47G G73U,0.458
2,G40A A45G,0.815
3,C32U U69G,0.852
4,C57G G67U,0.8
5,C48A U72C,0.519
6,U12G G80C,0.0791
7,A16U A87C,1.04
8,G6C U9A,0.256
9,A77C C85A,0.506
10,G39A C62A,0.554
11,G35U G81C,0.133
12,G40U G74U,0.468
13,U12G C32A,0.0639
14,C63U G67U,1.02
15,G28A A83G,0.0946
16,U46G U60C,0.665
17,C19G A78C,0.119
18,C21G A87G,0.0462
19,C21G G31C,0.147
20,C64G A83C,0.373
21,U9A G29C,0
22,U37C U69C,0.89
23,U46C C66A,0.849
24,G2C C62G,0.0852

row,Variant,self-cleavage
1,G35U G38U,0
2,G35U G38C,0.0536
3,U20C U79A,0
4,A45U A71G,0.872
5,G17A G59C,0.66
6,U23C C85U,0.849
7,C61U C84A,0.992
8,G80C A87U,0.177
9,C22A C63A,0.166
10,G5U C57A,0.383
11,C32A G68U,0.0906
12,G25A G82U,0.119
13,G39A G54C,0.369
14,G34C G76C,0.332
15,U9G C61U,1.05
16,G54A U60A,0.758
17,G25A G54C,0.138
18,C30U C86A,0.923
19,U9C C19A,0.175
20,C18U C41U,0.49
21,G11U C33A,0.0604
22,G11C C36G,0.148
23,C33G G53C,0.156
24,A8C C30U,0.415

row,Variant,self-cleavage
1,A8C C30A,0.0462
2,C22A A70U,0.222
3,C41G A51U,1.18
4,G2U G5U,0.0163
5,U60G G82A,0.6
6,G2C C15A,0.0297
7,G38A A83C,0.151
8,C48A C49A,1.16
9,U65G A71U,0.863
10,G6A C19A,0.0346
11,G25A A77C,0.0978
12,U9C G35U,0.135
13,C58U U65C,1.03
14,C15A C36A,0.0692
15,C18A C86U,0.0898
16,C7G C13G,0.0554
17,G6A C64A,0.869
18,C22A C75U,0.128
19,U37G C63A,0.123
20,G35A A77G,0.277
21,U47G U69G,0.776
22,A56C U79C,0.379
23,G11A G81U,0.137
24,C3A C61A,0.596

row,Variant,self-cleavage
1,G2A G82A,0.0852
2,G2U C62U,0.0314
3,G54A U79G,0.643
4,U47G C75A,0.107
5,A16C G80U,0.171
6,G11U G67A,0.0875
7,U20C U65A,0.166
8,C48U C84U,0.742
9,U47C G74C,0.256
10,C19A C66U,0.116
11,C33G C48A,0
12,G82U A83U,0.289
13,C24G U69C,0.0354
14,U46G U72A,0.266
15,C13A C61G,0.0959
16,C18A C22A,0.117
17,U12G C58U,0.751
18,C57A G67U,1.06
19,C32A G50C,0.262
20,G5A G50A,0.192
21,G2A C13A,0.0231
22,G17C A77C,0.277
23,G17C G35A,0.147
